Measurements taken from US20230382948A1, “DELIVERY OF ENDOTHELIAL CELL-LADEN MICROGEL ELICITS ANGIOGENESIS IN SELF-ASSEMBLING ULTRASHORT PEPTIDE HYDROGELS” (KING ABDULLAH UNIVERSITY OF SCIENCE AND TECHNOLOGY, priority 2020, published 2023).
Where no end group is shown, it is not given here. [ ]: non-standard residue; d: D form. Cha = N[C@@H](CC1CCCCC1)C(=O)O

What was measured:
[1] = Rheological characterization of SUP bulk hydrogels; type: physicochemical
Protocol: The mechanical stiffness of the peptide hydrogels was analyzed using a TA Ares-G2 Rheometer equipped with parallel-plate geometries of 8 mm diameter at room temperature. The sample gap between the upper and the lower geometries was set at 1.8 mm. The hydrogels were prepared from 135 μL of peptide solution that was mixed with 15 μL of 10×PBS in an 8 mm i.d. poly(methyl methacrylate) (PMMA) casting ring and left for 1 day before measurement. The rings were kept inside Petri dishes at room temperature with water surrounding them and tightly sealed to avoid dehydration. To control the accuracy of the measurements, six replicates for each peptide hydrogel were prepared. The stiffness was analyzed through three successive tests, which were time sweep, frequency sweep, and amplitude sweep. Time sweep was first performed for 5 min with an angular frequency and a strain of 1 rad/s and 0.1%, respectively. A frequency sweep was subsequently performed on the sample for a range of angular frequency of 0.1-100 rad/s with the same strain of 0.1%. The tests were completed with the amplitude sweep by applying a gradual increase of strain […] at 1 rad/s angular frequency.

[2] = Peptide gelation study (vial inversion method); type: physicochemical; settings: 1 mg/ml and 10 mg/ml, compared to IIZK and IZZK, FIG. 57
Protocol: The preweighed (as per the required final concentration) peptide powder was dissolved in 0.9 mL of Milli-Q® water in a glass vial. The solution was vortexed for 5-10 s to obtain a clear and homogeneous solution. To this peptide solution, 0.1 mL of PBS buffer (10×, w/o Ca^2+ and Mg^2+) was added. To ensure a homogeneous distribution of buffer in the solution, the glass vial was further vortexed for 2-3 s. The glass vial was kept undisturbed on the bench, and hydrogel formation was observed using the vial inversion method, as shown in FIG. 9. The pH of the solutions of IVFK (SEQ ID NO. 1) and IVZK (SEQ ID NO. 2) was 5.57 and 5.48 at a 5 mg/mL concentration, respectively. After the addition of PBS, the pH changed to 7.7 and 7.6 for IVFK (SEQ ID NO. 1) and IVZK (SEQ ID NO. 2), respectively. The pH of the Milli-Q® water and phosphate buffer used was 6.7 and 7.4, respectively.

Which “Loss modulus (G″)” value ([1]; 1 mg/mL) does the source give for “IIZK: self-assembling ultrashort tetrapeptide, Cha-containing, one-letter sequence IIZK (II[Cha]K)” here?
The value was 0.88 ± 0.04 kPa.

What about the “Storage Modulus (G′, kPa)” value ([1]; 1 mg/mL) of the same substance?
The value was 6.52 ± 0.18 kPa.

What about the “tan δ (G″/G′)” value ([1]; 1 mg/mL) of the same substance?
Its value is 0.13.

What about the “Loss modulus (G″)” value ([1]; 2 mg/mL) of the same substance?
Its value is 2.02 ± 0.09 kPa.

And the “Storage Modulus (G′, kPa)” value ([1]; 2 mg/mL)?
The value was 16.82 ± 0.72 kPa.

And the “tan δ (G″/G′)” value ([1]; 2 mg/mL)?
The value was 0.12.

And the “Loss modulus (G″)” value ([1]; 5 mg/mL)?
The value was 7.08 ± 0.59 kPa.

What about the “Storage Modulus (G′, kPa)” value ([1]; 5 mg/mL) of the same substance?
The value was 64.74 ± 4.89 kPa.

What about the “tan δ (G″/G′)” value ([1]; 5 mg/mL) of the same substance?
The value was 0.11.

And the “Loss modulus (G″)” value ([1]; 8 mg/mL)?
Its value is 10.91 ± 0.44 kPa.

And the “Storage Modulus (G′, kPa)” value ([1]; 8 mg/mL)?
Its value is 89.40 ± 1.86 kPa.

And the “tan δ (G″/G′)” value ([1]; 8 mg/mL)?
The value was 0.12.

And the “Loss modulus (G″)” value ([1]; 10 mg/mL)?
Its value is 15.54 ± 0.68 kPa.

What about the “Storage Modulus (G′, kPa)” value ([1]; 10 mg/mL) of the same substance?
Its value is 134.04 ± 5.99 kPa.

What about the “tan δ (G″/G′)” value ([1]; 10 mg/mL) of the same substance?
The value was 0.12.

What about the “Loss modulus (G″)” value ([1]; 13 mg/mL) of the same substance?
The value was 37.76 ± 2.38 kPa.

What about the “Storage Modulus (G′, kPa)” value ([1]; 13 mg/mL) of the same substance?
The value was 271.34 ± 35.09 kPa.

And the “tan δ (G″/G′)” value ([1]; 13 mg/mL)?
The value was 0.14.

For “IIFK: self-assembling ultrashort tetrapeptide, one-letter sequence IIFK”, which “Loss modulus (G″)” value ([1]; 1 mg/mL) is on record?
Its value is 0.13 ± 0.04 kPa.

What about the “Storage Modulus (G′, kPa)” value ([1]; 1 mg/mL) of the same substance?
Its value is 1.25 ± 0.86 kPa.

What about the “tan δ (G″/G′)” value ([1]; 1 mg/mL) of the same substance?
The value was 0.10.

What about the “Loss modulus (G″)” value ([1]; 2 mg/mL) of the same substance?
The value was 1.31 ± 0.12 kPa.

And the “Storage Modulus (G′, kPa)” value ([1]; 2 mg/mL)?
The value was 14.45 ± 1.37 kPa.

What about the “tan δ (G″/G′)” value ([1]; 2 mg/mL) of the same substance?
The value was 0.09.

And the “Loss modulus (G″)” value ([1]; 5 mg/mL)?
The value was 2.39 ± 0.11 kPa.

And the “Storage Modulus (G′, kPa)” value ([1]; 5 mg/mL)?
The value was 27.26 ± 1.30 kPa.

And the “tan δ (G″/G′)” value ([1]; 5 mg/mL)?
Its value is 0.09.

And the “Loss modulus (G″)” value ([1]; 8 mg/mL)?
The value was 5.00 ± 0.31 kPa.

What about the “Storage Modulus (G′, kPa)” value ([1]; 8 mg/mL) of the same substance?
The value was 49.74 ± 5.02 kPa.

What about the “tan δ (G″/G′)” value ([1]; 8 mg/mL) of the same substance?
The value was 0.10.

And the “Loss modulus (G″)” value ([1]; 10 mg/mL)?
Its value is 9.04 ± 0.56 kPa.

What about the “Storage Modulus (G′, kPa)” value ([1]; 10 mg/mL) of the same substance?
The value was 94.18 ± 7.12 kPa.

What about the “tan δ (G″/G′)” value ([1]; 10 mg/mL) of the same substance?
Its value is 0.10.

What about the “Loss modulus (G″)” value ([1]; 13 mg/mL) of the same substance?
The value was 8.90 ± 0.36 kPa.

What about the “Storage Modulus (G′, kPa)” value ([1]; 13 mg/mL) of the same substance?
Its value is 108.21 ± 5.02 kPa.

And the “tan δ (G″/G′)” value ([1]; 13 mg/mL)?
Its value is 0.08.

What about the “Self-assembly rate (time to form a gel)” value [2] of the same substance?
Its value is “slower than the Cha-containing peptides”.
